Source: US20040146511A1

B1: murine anti-Factor IX monoclonal antibody BC2 (antibody, from a related filing, mouse IgG2a, V domains shown)
VH: QIQLVQSGPELKKPGETVKISCKASGYTFTNYGMNWVKQAPGKGLKWMGWINTRNGKSTYVDDFKGRFAFSLESSASTANLQIDNLKDEDTATYFCTREGNMDGYFPFTYWGQGTLVTVSA
VL: QIVLSQSPAILSASPGEKVTMTCRASSSVNYMHWYQQKPGSSPKPWIYATSNLASGVPARFSGSGSGTSYSLTISRVEAEDAATYYCQQWSINPRTFGGGTKLEIKR
B2: humanized anti-Factor IX monoclonal antibody SB 249417 (antibody, V domains shown)
VH: QVQLVQSGSELKKPGASVKVSCKASGYTFTNYGMNWVRQAPGQGLKWMGWINTRNGKSTYVDDFKGRFVFSLDSSVSTAYLQISSLKADDTAVYYCTREGNMDGYFPFTYWGQGTLVTVSS
VL: QIVLTQSPSSLSASVGDRVTITCRASSSVNYMHWYQQKPGKAPKPWIYATSNLASGVPSRFSGSGSGTDYTFTISSLQPEDIATYYCQQWSINPRTFGQGTKVEIKR

Tests used:
[1] = target: human Factor IX (human) (UniProt P00740); assay: cell-based or functional assay
[2] = target: Recombinant human Factor IX (rhFIX, Genetics Institute) (human) (UniProt P00740); assay: titration microcalorimetry; 106 uM FIX injected into 2 uM mAb
Recombinant human Factor IX (rhFIX, Genetics Institute) (human), sequence (P00740 47-461 limits assumed): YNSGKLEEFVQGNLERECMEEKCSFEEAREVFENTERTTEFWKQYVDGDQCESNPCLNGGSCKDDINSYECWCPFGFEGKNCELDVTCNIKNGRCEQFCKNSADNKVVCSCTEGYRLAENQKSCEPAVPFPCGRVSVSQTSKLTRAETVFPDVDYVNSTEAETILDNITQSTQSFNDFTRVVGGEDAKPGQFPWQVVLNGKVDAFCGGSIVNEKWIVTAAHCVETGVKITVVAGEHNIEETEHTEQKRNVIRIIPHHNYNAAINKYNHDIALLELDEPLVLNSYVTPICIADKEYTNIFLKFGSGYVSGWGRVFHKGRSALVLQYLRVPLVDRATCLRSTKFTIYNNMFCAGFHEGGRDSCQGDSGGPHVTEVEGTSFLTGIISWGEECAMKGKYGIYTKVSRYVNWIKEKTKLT

human Factor IX (human), sequence (P00740 47-461 limits assumed): as above

Binder | aPTT at saturating concentrations [1] [s] | aPTTmax/aPTTnormal x 100 % [1] [%] | molar binding ratio (FIX per mAb) [2] [FIX per mAb]
B1 | 90 | 350 | 
B2 |  |  | 2
